# Laboratory results reported in the Human Domainome abundance scans (Beltran et al. 2025).
# ± gives the uncertainty stated by the source.
# B1: Mineralocorticoid receptor, residues 600 to 675; numbered along this chain, P08235 (parent)
# chain: SKICLVCGDEASGCHYGVVTCGSCKVFFKRAVEGQHNYLCAGRNDCIIDKIRRKNCPACRLQKCLQAGMNLGARKS
# Variants of: B1
# Assay: abundance fitness (aPCA) (normalised: wild type 0, dead -1); higher = more abundant; growth selection in yeast, the domain comes from the species named
# Details: Homo sapiens
row,Variant,abundance fitness
1,SKICLVCGDEASGCHYGVVTCGSCKVFFKRAVEGQHNYLCAGRNDCIGDKIRRKNCPACRLQKCLQAGMNLGARKS [I48G],-0.033 ± 0.04
2,SKICLVCGDEASGCHYGVVTCGSCKVFFKRAVEGQHNYLCAGRNDCIPDKIRRKNCPACRLQKCLQAGMNLGARKS [I48P],-0.131 ± 0.043
3,SKICLVCGDEASGCHYGVVTCGSCKVFFKRAVEGQHNYLCAGRNDCIHDKIRRKNCPACRLQKCLQAGMNLGARKS [I48H],-0.2 ± 0.075
4,SKICLVCGDEASGCHYGVVTCGSCKVFFKRAVEGQHNYLCAGRNDCISDKIRRKNCPACRLQKCLQAGMNLGARKS [I48S],-0.122 ± 0.032
5,SKICLVCGDEASGCHYGVVTCGSCKVFFKRAVEGQHNYLCAGRNDCIYDKIRRKNCPACRLQKCLQAGMNLGARKS [I48Y],-0.176 ± 0.063
6,SKICLVCGDEASGCHYGVVTCGSCKVFFKRAVEGQHNYLCAGRNDCIWDKIRRKNCPACRLQKCLQAGMNLGARKS [I48W],-0.072 ± 0.058
7,SKICLVCGDEASGCHYGVVTCGSCKVFFKRAVEGQHNYLCAGRNDCIRDKIRRKNCPACRLQKCLQAGMNLGARKS [I48R],-0.147 ± 0.036
8,SKICLVCGDEASGCHYGVVTCGSCKVFFKRAVEGQHNYLCAGRNDCIVDKIRRKNCPACRLQKCLQAGMNLGARKS [I48V],-0.035 ± 0.038
9,SKICLVCGDEASGCHYGVVTCGSCKVFFKRAVEGQHNYLCAGRNDCINDKIRRKNCPACRLQKCLQAGMNLGARKS [I48N],-0.015 ± 0.062
10,SKICLVCGDEASGCHYGVVTCGSCKVFFKRAVEGQHNYLCAGRNDCICDKIRRKNCPACRLQKCLQAGMNLGARKS [I48C],-0.226 ± 0.052
11,SKICLVCGDEASGCHYGVVTCGSCKVFFKRAVEGQHNYLCAGRNDCIEDKIRRKNCPACRLQKCLQAGMNLGARKS [I48E],-0.002 ± 0.056
12,SKICLVCGDEASGCHYGVVTCGSCKVFFKRAVEGQHNYLCAGRNDCIQDKIRRKNCPACRLQKCLQAGMNLGARKS [I48Q],-0.013 ± 0.049
13,SKICLVCGDEASGCHYGVVTCGSCKVFFKRAVEGQHNYLCAGRNDCIDDKIRRKNCPACRLQKCLQAGMNLGARKS [I48D],-0.107 ± 0.093
14,SKICLVCGDEASGCHYGVVTCGSCKVFFKRAVEGQHNYLCAGRNWCIIDKIRRKNCPACRLQKCLQAGMNLGARKS [D45W],-0.249 ± 0.054
15,SKICLVCGDEASGCHYGVVTCGSCKVFFKRAVEGQHNYLCAGRNSCIIDKIRRKNCPACRLQKCLQAGMNLGARKS [D45S],-0.092 ± 0.037
16,SKICLVCGDEASGCHYGVVTCGSCKVFFKRAVEGQHNYLCAGRNVCIIDKIRRKNCPACRLQKCLQAGMNLGARKS [D45V],-0.074 ± 0.031
17,SKICLVCGDEASGCHYGVVTCGSCKVFFKRAVEGQHNYLCAGRNTCIIDKIRRKNCPACRLQKCLQAGMNLGARKS [D45T],-0.104 ± 0.038
18,SKICLVCGDEASGCHYGVVTCGSCKVFFKRAVEGQHNYLCAGRNYCIIDKIRRKNCPACRLQKCLQAGMNLGARKS [D45Y],-0.159 ± 0.044

row,Variant,abundance fitness
1,SKICLVCGDEASGCHYGVVTCGSCKVFFKRAVEGQHNYLCAGRNDCGIDKIRRKNCPACRLQKCLQAGMNLGARKS [I47G],-0.096 ± 0.067
2,SKICLVCGDEASGCHYGVVTCGSCKVFFKRAVEGQHNYLCAGRNDCPIDKIRRKNCPACRLQKCLQAGMNLGARKS [I47P],0.013 ± 0.058
3,SKICLVCGDEASGCHYGVVTCGSCKVFFKRAVEGQHNYLCAGRNDCEIDKIRRKNCPACRLQKCLQAGMNLGARKS [I47E],-0.023 ± 0.14
4,SKICLVCGDEASGCHYGVVTCGSCKVFFKRAVEGQHNYLCAGRNDCRIDKIRRKNCPACRLQKCLQAGMNLGARKS [I47R],0.03 ± 0.049
5,SKICLVCGDEASGCHYGVVTCGSCKVFFKRAVEGQHNYLCAGRNDCLIDKIRRKNCPACRLQKCLQAGMNLGARKS [I47L],0.022 ± 0.044
6,SKICLVCGDEASGCHYGVVTCGSCKVFFKRAVEGQHNYLCAGRNDCWIDKIRRKNCPACRLQKCLQAGMNLGARKS [I47W],-0.193 ± 0.1
7,SKICLVCGDEASGCHYGVVTCGSCKVFFKRAVEGQHNYLCAGRNDCAIDKIRRKNCPACRLQKCLQAGMNLGARKS [I47A],-0.035 ± 0.055
8,SKICLVCGDEASGCHYGVVTCGSCKVFFKRAVEGQHNYLCAGRNDCKIDKIRRKNCPACRLQKCLQAGMNLGARKS [I47K],0.018 ± 0.11
9,SKICLVCGDEASGCHYGVVTCGSCKVFFKRAVEGQHNYLCAGRNDCTIDKIRRKNCPACRLQKCLQAGMNLGARKS [I47T],0.027 ± 0.049
10,SKICLVCGDEASGCHYGVVTCGSCKVFFKRAVEGQHNYLCAGRNDCSIDKIRRKNCPACRLQKCLQAGMNLGARKS [I47S],0 ± 0.038
11,SKICLVCGDEASGCHYGVVTCGSCKVFFKRAVEGQHNYLCAGRNDCYIDKIRRKNCPACRLQKCLQAGMNLGARKS [I47Y],-0.128 ± 0.05
12,SKICLVCGDEASGCHYGVVTCGSCKVFFKRAVEGQHNYLCAGRNDCVIDKIRRKNCPACRLQKCLQAGMNLGARKS [I47V],-0.019 ± 0.058
13,SKICLVCGDEASGCHYGVVTCGSCKVFFKRAVEGQHNYLCAGRNDCQIDKIRRKNCPACRLQKCLQAGMNLGARKS [I47Q],-0.024 ± 0.072
14,SKICLVCGDEASGCHYGVVTCGSCKVFFKRAVEGQHNYLCAGRNDCFIDKIRRKNCPACRLQKCLQAGMNLGARKS [I47F],-0.01 ± 0.047
15,SKICLVCGDEASGCHYGVVTCGSCKVFFKRAVEGQHNYLCAGRNDCMIDKIRRKNCPACRLQKCLQAGMNLGARKS [I47M],-0.079 ± 0.09
16,SKICLVCGDEASGCHYGVVTCGSCKVFFKRAVEGQHNYLCAGRNDCCIDKIRRKNCPACRLQKCLQAGMNLGARKS [I47C],0.049 ± 0.057
17,SKICLVCGDEASGCHYGVVTCGSCKVFFKRAVEGQHNYLCAGRNDCHIDKIRRKNCPACRLQKCLQAGMNLGARKS [I47H],-0.018 ± 0.043
18,SKICLVCGDEASGCHYGVVTCGSCKVFFKRAVEGQHNYLCAGRNDCDIDKIRRKNCPACRLQKCLQAGMNLGARKS [I47D],-0.065 ± 0.057
